B1: 14-3-3-like protein GF14 phi (Arabidopsis thaliana (Mouse-ear cress)), P46077 (parent)
chain: MAAPPASSSAREEFVYLAKLAEQAERYEEMVEFMEKVAEAVDKDELTVEERNLLSVAYKNVIGARRASWRIISSIEQKEESRGNDDHVTTIRDYRSKIESELSKICDGILKLLDTRLVPASANGDSKVFYLKMKGDYHRYLAEFKTGQERKDAAEHTLTAYKAAQDIANAELAPTHPIRLGLALNFSVFYYEILNSPDRACNLAKQAFDEAIAELDTLGEESYKDSTLIMQLLRDNLTLWTSDMQDESPEEIKEAAAPKPAEEQKEI
partner: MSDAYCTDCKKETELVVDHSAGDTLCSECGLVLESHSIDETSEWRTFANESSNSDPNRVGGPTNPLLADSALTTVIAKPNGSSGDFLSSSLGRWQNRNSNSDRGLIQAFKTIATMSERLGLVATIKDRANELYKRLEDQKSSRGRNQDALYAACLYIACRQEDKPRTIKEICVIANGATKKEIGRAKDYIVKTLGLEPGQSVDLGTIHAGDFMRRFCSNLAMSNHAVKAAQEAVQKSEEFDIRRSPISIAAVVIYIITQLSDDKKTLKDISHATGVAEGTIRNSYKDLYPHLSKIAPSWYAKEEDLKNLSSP
B2: 14-3-3 protein epsilon (Homo sapiens), P62258 (parent)
chain: MDDREDLVYQAKLAEQAERYDEMVESMKKVAGMDVELTVEERNLLSVAYKNVIGARRASWRIISSIEQKEENKGGEDKLKMIREYRQMVETELKLICCDILDVLDKHLIPAANTGESKVFYYKMKGDYHRYLAEFATGNDRKEAAENSLVAYKAASDIAMTELPPTHPIRLGLALNFSVFYYEILNSPDRACRLAKAAFDDAIAELDTLSEESYKDSTLIMQLLRDNLTLWTSDMQGDGEEQNKEALQDVEDENQ
B3: 14-3-3-like protein GF14 phi (Arabidopsis thaliana (Mouse-ear cress)), P46077 (parent)
chain: B1 chain
partner: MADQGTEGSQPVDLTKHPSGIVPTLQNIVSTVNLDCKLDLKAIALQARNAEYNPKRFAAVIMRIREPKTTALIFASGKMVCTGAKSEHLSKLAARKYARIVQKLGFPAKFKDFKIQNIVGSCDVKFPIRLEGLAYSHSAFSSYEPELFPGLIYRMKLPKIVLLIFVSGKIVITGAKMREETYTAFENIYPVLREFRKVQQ
B4: Transcription initiation factor IIB (Homo sapiens), Q00403 (parent)
chain: MASTSRLDALPRVTCPNHPDAILVEDYRAGDMICPECGLVVGDRVIDVGSEWRTFSNDKATKDPSRVGDSQNPLLSDGDLSTMIGKGTGAASFDEFGNSKYQNRRTMSSSDRAMMNAFKEITTMADRINLPRNIVDRTNNLFKQVYEQKSLKGRANDAIASACLYIACRQEGVPRTFKEICAVSRISKKEIGRCFKLILKALETSVDLITTGDFMSRFCSNLCLPKQVQMAATHIARKAVELDLVPGRSPISVAAAAIYMASQASAEKRTQKEIGDIAGVADVTIRQSYRLIYPRAPDLFPTDFKFDTPVDKLPQL
partner: B1 chain

Variants of: B1
Conditions: with tf2b1_arath TFIIB1, P48512

| effect of a mutation on the interaction | Variant |
| --- | --- |
| disrupting interaction | MAAPPASSSAREEFVYLAKLAEQAERYEEMVEFMEKVAEAVDKDELTVEERNLLSVAYKNVIGARRASWRIISSIEQKEESRGNDDHVTTIRDYRSKIESELSKICDGILKLLDTRLVPASANGDSKVFYLKMKGDYHRYLAEFKTGQERKDAAEHTLTAYKAAQDIANAELAPTHPIRLGLALNAAVFYYEILNSPDRACNLAKQAFDEAIAELDTLGEESYKDSTLIMQLLRDNLTLWTSDMQDESPEEIKEAAAPKPAEEQKEI [F186A;S187A] |
| decreasing interaction | MAAPPASSSAREEFVYLAKLAEQAERYEEMVEFMEKVAEAVDKDELTVEERNLLSVAYKNVIGARRASWRIISSIEQKEESRGNDDHVTTIRDYRSKIESELSKICDGILKLLDTRLVPASANGDSKVFYLKMKGDYHRYLAEFKTGQERKDAAEHTLTAYKAAQDIANAELAPTHPIRLGLALNFSAAYYEILNSPDRACNLAKQAFDEAIAELDTLGEESYKDSTLIMQLLRDNLTLWTSDMQDESPEEIKEAAAPKPAEEQKEI [V188A;F189A] |
| decreasing interaction | MAAPPASSSAREEFVYLAKLAEQAERYEEMVEFMEKVAEAVDKDELTVEERNLLSVAYKNVIGARRASWRIISSIEQKEESRGNDDHVTTIRDYRSKIESELSKICDGILKLLDTRLVPASANGDSKVFYLKMKGDYHRYLAEFKTGQERKDAAEHTLTAYKAAQDIANAELAPTHPIRLGLAAAFSVFYYEILNSPDRACNLAKQAFDEAIAELDTLGEESYKDSTLIMQLLRDNLTLWTSDMQDESPEEIKEAAAPKPAEEQKEI [L184A;N185A] |

Variants of: B2
Conditions: with tbp_human TBP

| effect of a mutation on the interaction | Variant |
| --- | --- |
| disrupting interaction | MDDREDLVYQAKLAEQAERYDEMVESMKKVAGMDVELTVEERNLLSVAYKNVIGARRASWRIISSIEQKEENKGGEDKLKMIREYRQMVETELKLICCDILDVLDKHLIPAANTGESKVFYYKMKGDYHRYLAEFATGNDRKEAAENSLVAYKAASDIAMTELPPTHPIRLGLALNAAVFYYEILNSPDRACRLAKAAFDDAIAELDTLSEESYKDSTLIMQLLRDNLTLWTSDMQGDGEEQNKEALQDVEDENQ [F177A;S178A] |
| decreasing interaction | MDDREDLVYQAKLAEQAERYDEMVESMKKVAGMDVELTVEERNLLSVAYKNVIGARRASWRIISSIEQKEENKGGEDKLKMIREYRQMVETELKLICCDILDVLDKHLIPAANTGESKVFYYKMKGDYHRYLAEFATGNDRKEAAENSLVAYKAASDIAMTELPPTHPIRLGLALNFSAAYYEILNSPDRACRLAKAAFDDAIAELDTLSEESYKDSTLIMQLLRDNLTLWTSDMQGDGEEQNKEALQDVEDENQ [V179A;F180A] |
| decreasing interaction | MDDREDLVYQAKLAEQAERYDEMVESMKKVAGMDVELTVEERNLLSVAYKNVIGARRASWRIISSIEQKEENKGGEDKLKMIREYRQMVETELKLICCDILDVLDKHLIPAANTGESKVFYYKMKGDYHRYLAEFATGNDRKEAAENSLVAYKAASDIAMTELPPTHPIRLGLAAAFSVFYYEILNSPDRACRLAKAAFDDAIAELDTLSEESYKDSTLIMQLLRDNLTLWTSDMQGDGEEQNKEALQDVEDENQ [L175A;N176A] |

Variants of: B3
Conditions: with tbp2_arath TBP2, P28148

| effect of a mutation on the interaction | Variant |
| --- | --- |
| decreasing interaction | MAAPPASSSAREEFVYLAKLAEQAERYEEMVEFMEKVAEAVDKDELTVEERNLLSVAYKNVIGARRASWRIISSIEQKEESRGNDDHVTTIRDYRSKIESELSKICDGILKLLDTRLVPASANGDSKVFYLKMKGDYHRYLAEFKTGQERKDAAEHTLTAYKAAQDIANAELAPTHPIRLGLAAAFSVFYYEILNSPDRACNLAKQAFDEAIAELDTLGEESYKDSTLIMQLLRDNLTLWTSDMQDESPEEIKEAAAPKPAEEQKEI [L184A;N185A] |
| disrupting interaction | MAAPPASSSAREEFVYLAKLAEQAERYEEMVEFMEKVAEAVDKDELTVEERNLLSVAYKNVIGARRASWRIISSIEQKEESRGNDDHVTTIRDYRSKIESELSKICDGILKLLDTRLVPASANGDSKVFYLKMKGDYHRYLAEFKTGQERKDAAEHTLTAYKAAQDIANAELAPTHPIRLGLALNAAVFYYEILNSPDRACNLAKQAFDEAIAELDTLGEESYKDSTLIMQLLRDNLTLWTSDMQDESPEEIKEAAAPKPAEEQKEI [F186A;S187A] |
| decreasing interaction | MAAPPASSSAREEFVYLAKLAEQAERYEEMVEFMEKVAEAVDKDELTVEERNLLSVAYKNVIGARRASWRIISSIEQKEESRGNDDHVTTIRDYRSKIESELSKICDGILKLLDTRLVPASANGDSKVFYLKMKGDYHRYLAEFKTGQERKDAAEHTLTAYKAAQDIANAELAPTHPIRLGLALNFSAAYYEILNSPDRACNLAKQAFDEAIAELDTLGEESYKDSTLIMQLLRDNLTLWTSDMQDESPEEIKEAAAPKPAEEQKEI [V188A;F189A] |

Variants of: B4
Conditions: with 14334_arath GRF4, P46077

| effect of a mutation on the interaction | Variant |
| --- | --- |
| decreasing interaction | MASTSRLDALPRVTCPNHPDAILVEDYRAGDMICPECGLVVGDRVIDVGSEWRTFSNDKATKDPSRVGDSQNPLLSDGDLSTMIGKGTGAASFDEFGNSKYQNRRTMSSSDRAMMNAFKEITTMADRINLPRNIVDRTNNLFKQVYEQKSLKGRANDAIASACLYIACRQEGVPRTFKEICAVSEISKKEIGECFKLILKALETSVDLITTGDFMSRFCSNLCLPKQVQMAATHIARKAVELDLVPGRSPISVAAAAIYMASQASAEKRTQKEIGDIAGVADVTIRQSYRLIYPRAPDLFPTDFKFDTPVDKLPQL [R185E;R193E] |
